T1: human CD22-ECD-His protein (human, UniProt P20273 20-687)
T1 construct: Made in house in HEK293E; also called hCD22-ECD-His; recombinant human CD22-ECD His protein; not shown: His tag
T1 sequence: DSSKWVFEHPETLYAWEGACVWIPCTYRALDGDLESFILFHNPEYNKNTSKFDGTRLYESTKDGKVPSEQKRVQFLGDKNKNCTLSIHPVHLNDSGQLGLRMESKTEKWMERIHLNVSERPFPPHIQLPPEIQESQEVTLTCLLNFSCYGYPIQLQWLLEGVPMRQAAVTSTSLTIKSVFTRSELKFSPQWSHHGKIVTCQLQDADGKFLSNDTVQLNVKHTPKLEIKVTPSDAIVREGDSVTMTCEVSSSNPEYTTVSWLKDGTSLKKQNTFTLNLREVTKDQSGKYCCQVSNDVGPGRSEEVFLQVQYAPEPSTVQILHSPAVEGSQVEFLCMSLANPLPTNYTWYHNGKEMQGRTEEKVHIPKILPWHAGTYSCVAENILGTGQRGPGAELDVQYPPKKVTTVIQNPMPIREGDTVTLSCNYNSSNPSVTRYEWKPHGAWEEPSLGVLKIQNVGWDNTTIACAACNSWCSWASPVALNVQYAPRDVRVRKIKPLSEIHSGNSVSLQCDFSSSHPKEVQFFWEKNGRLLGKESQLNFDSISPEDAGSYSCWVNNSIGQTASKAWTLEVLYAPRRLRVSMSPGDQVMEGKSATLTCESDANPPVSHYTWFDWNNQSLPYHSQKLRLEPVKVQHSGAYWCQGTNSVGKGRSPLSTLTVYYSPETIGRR

T2: monkey CD22 protein (ACROBiosystems, SI2-R52Ha) (monkey (rhesus monkey in paragraph 148), UniProt H9G1X2 18-686)
T2 construct: extracellular domain; also called monkey CD22-ECD; monkey CD22-ECD-His
T2 sequence: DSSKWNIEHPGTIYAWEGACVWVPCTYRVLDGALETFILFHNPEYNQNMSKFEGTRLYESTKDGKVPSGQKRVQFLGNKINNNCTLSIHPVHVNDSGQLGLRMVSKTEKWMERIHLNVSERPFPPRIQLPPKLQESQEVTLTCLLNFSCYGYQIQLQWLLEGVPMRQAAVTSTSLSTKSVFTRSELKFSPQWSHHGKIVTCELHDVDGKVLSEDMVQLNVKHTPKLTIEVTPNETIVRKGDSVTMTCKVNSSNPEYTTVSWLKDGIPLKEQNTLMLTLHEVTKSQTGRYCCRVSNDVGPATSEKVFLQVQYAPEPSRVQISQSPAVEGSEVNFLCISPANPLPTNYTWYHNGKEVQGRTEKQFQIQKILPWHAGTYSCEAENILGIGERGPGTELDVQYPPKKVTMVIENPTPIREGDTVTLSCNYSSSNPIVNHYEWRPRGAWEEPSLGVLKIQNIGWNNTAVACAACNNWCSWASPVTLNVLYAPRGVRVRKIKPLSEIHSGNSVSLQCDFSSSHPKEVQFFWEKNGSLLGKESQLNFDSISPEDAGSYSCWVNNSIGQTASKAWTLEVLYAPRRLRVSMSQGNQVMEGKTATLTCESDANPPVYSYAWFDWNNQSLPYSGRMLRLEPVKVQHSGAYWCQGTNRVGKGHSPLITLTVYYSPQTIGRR

T3: human CD22 domain1-4-His (human, UniProt P20273 20-425)
T3 construct: also called hCD22 domain1-4-His; not shown: His tag
T3 sequence: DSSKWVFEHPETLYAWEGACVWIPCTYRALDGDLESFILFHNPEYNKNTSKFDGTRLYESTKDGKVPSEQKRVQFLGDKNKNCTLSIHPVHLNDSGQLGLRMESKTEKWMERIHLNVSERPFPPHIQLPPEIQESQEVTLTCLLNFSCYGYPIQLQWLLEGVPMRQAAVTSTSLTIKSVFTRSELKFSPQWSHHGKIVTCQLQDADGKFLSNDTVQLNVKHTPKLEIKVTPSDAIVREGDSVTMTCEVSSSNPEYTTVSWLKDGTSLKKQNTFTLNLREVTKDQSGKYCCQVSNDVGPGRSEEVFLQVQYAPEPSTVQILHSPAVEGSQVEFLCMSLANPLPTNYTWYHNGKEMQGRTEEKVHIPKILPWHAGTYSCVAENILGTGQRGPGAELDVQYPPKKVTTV

B1: F1.224.1 (antibody, human IgG1, kappa, V domains shown)
VH: EVLLHQSGPELVKPGASVKISCKASGYTFTDFNMDWVRQRHGQSLEWIGDVNPNNGGTIYNQKFKGKATLTVDKSSSTVYMDLRSLTSDDTAVYYCVRLGTSDYGEAWFISWGQGTVVTVSA
VL: DIVLTQSPASLAVSLGQRATISCRASQSVSTPRYSFMHWYQQKPGQPPKLLIKYASNLESGFPARFTGSGSGTDFTLNIHPVEEEDTAAYYCQQSWAIPWTFGGGTKLEIKR
notes: Human-murine chimeric IgG1, kappa
B2: F1.280.1 (antibody, human IgG1, kappa, V domains shown)
VH: QIQLVQSGPELKKPGETVKISCKASGYTFTTYGMSWVKQTPGKGLTWMGWINTDSGVPTYADDFKRRFAFSLEASATTAYLQINNLKNEDTATYFCARGGPDYWGQGTTLTVSS
VL: DILLTQSPATLSVTPGETVSLSCRASQSIYKNLHWYHQKSHRSPRLLIKYASDSISGIPSRFTGSGSGTNFTLSINSVKPEDEGIYYCLQGYIVPLTFGAGTKLELKR
notes: as for B1
B3: F2.180.16 (antibody, human IgG1, lambda, V domains shown)
VH: EVKLVESGGGLVLPGGSLKISCAASGFTFSDYYMYWIRQTPDKRLEWVAYISNTGYSTFYPDSVKGRFTVSRDNAKNTLYLQMSRLQSEDTAMYYCARHGILYAMDYWGQGTSVTVSS
VL: QPVLTQSSSASFSLGASAKLTCTLSSQYSTYTIGWYQQQPLKPPKYVMELKHDGSRHTGDGIPDRFSGSSSGADRYLSISNIQPEDEATYICGVGDTIKEQFMYVFGGGTKVTVLG
notes: Human-murine chimeric IgG1, lambda
B4: HA22-hIgG1 (antibody, V domains shown)
VH: EVQLVESGGGLVKPGGSLKLSCAASGFAFSIYDMSWVRQTPEKCLEWVAYISSGGGTTYYPDTVKGRFTISRDNAKNTLYLQMSSLKSEDTAMYYCARHSGYGTHWGVLFAYWGQGTLVTVSA
VL: DIQMTQTTSSLSASLGDRVTISCRASQDISNYLNWYQQKPDGTVKLLIYYTSILHSGVPSRFSGSGSGTDYSLTISNLEQEDFATYFCQQGNTLPWTFGCGTKLEIKR
B5: F1.257.3 (antibody, human IgG1, kappa, V domains shown)
VH: QVQLQQSGPELARPGASVKLSCKASGYTFTSYGISWVKQRTGQDLEWIGEIYPKLGTTYYNEKFKDKATLTTDRSSSTAYMALRSLTSEDSAVYFCACPHYYATRGGDYWGQGTTLTVSS
VL: EIVLTQSPATLSVTPGDSVTFSCRASQSISNHLHWYQQKSHESPRLLIRYASQSISGIPSRFSGSGSGTDFTLSLSSVETEDFGVYFCQQSHSWPYTFGGGTKLEIAR
notes: as for B1
B6: F1.105.11 (antibody, human IgG1, kappa, V domains shown)
VH: EVQLQQSGPVLVKPGASVKMSCKASGYTFSDYFMNWVKQSHGKSLEWIGIINSYSGGTSYNQKFKGKATLTVDKSSSTAYMELNSLTSEDSAVYYCARWMDYWGQGTSVTVSS
VL: DVQITQSPSYLAASPGETITINCRTSESISKHLAWYQEKPGKTNKLLIYSGSTLQSGIPSRFSGSGSGTDFTLTISSLEPEDFAMYYCQQHNEYPWTFGGGTKLEIKR
notes: as for B1

Target: T1, human CD22-ECD-His protein
Assay: ELISA, Ab 0.01 nM
Summary of the method: (§1)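 After overnight 4 °C coating with 2 μg/mL CD22-ECD-His and 2 h BSA blocking, wells received antibody, then HRP conjugate (each 2 h, 37 °C). Signal came from TMB, 30 min at room temperature, acid-stopped.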

| Binder | OD450 [OD450] |
| --- | --- |
| B1 | 2.21 |
| B2 | 1.92 |
| B3 | 1.55 |
| B4 | 2.12 |
| B5 | 1.66 |
| B6 | 1.93 |

Target: T1, human CD22-ECD-His protein
Assay: ELISA, Ab 0.001 nM
Summary of the method: as §1

| Binder | OD450 [OD450] |
| --- | --- |
| B1 | 1.08 |
| B2 | 0.81 |
| B3 | 0.61 |
| B4 | 0.89 |
| B5 | 0.6 |
| B6 | 0.53 |

Target: T1, human CD22-ECD-His protein
Assay: ELISA, Ab 10.00 nM
Summary of the method: as §1

| Binder | OD450 [OD450] |
| --- | --- |
| B1 | 2.43 |
| B2 | 2.3 |
| B3 | 2.08 |
| B4 | 2.61 |
| B5 | 2.64 |
| B6 | 2.68 |

Target: T1, human CD22-ECD-His protein
Assay: ELISA, Ab 0.0001 nM
Summary of the method: as §1

| Binder | OD450 [OD450] |
| --- | --- |
| B1 | 0.34 |
| B2 | 0.24 |
| B3 | 0.31 |
| B4 | 0.33 |
| B5 | 0.28 |
| B6 | 0.14 |

Target: T1, human CD22-ECD-His protein
Assay: ELISA, Ab 100.00 nM
Summary of the method: as §1

| Binder | OD450 [OD450] |
| --- | --- |
| B1 | 3.12 |
| B2 | 2.46 |
| B3 | 2.61 |
| B4 | 2.65 |
| B5 | 2.83 |
| B6 | 2.79 |

Target: T1, human CD22-ECD-His protein
Assay: ELISA, human CD22-ECD-His coated
Summary of the method: as §1

| Binder | EC50 (read off the curve) [pM] |
| --- | --- |
| B1 | ~20 |
| B2 | ~20 |
| B4 | ~20 |
| B5 | ~60 |
| B6 | ~40 |

Target: T2, monkey CD22 protein (ACROBiosystems, …)
Assay: ELISA, monkey CD22-ECD-His coated
Description: In order to detect the binding activity of CD22 human-murine chimeric antibodies to CD22 protein, the purified human CD22-ECD-His protein obtained in Example 2 was diluted with PBS to a final concentration of 2 μg/mL, and then added to 96-well ELISA plate at 100 μl/well. The plate was sealed with plastic film and incubated overnight at 4° C., the plate was washed 2 times with PBS the next day, and then a blocking solution [PBS+2% (w/w) BSA] was added for blocking at room temperature for 2 hours. […] After incubation at 37° C. for 2 hours, the plate was washed 3 times with PBS. HRP (horseradish peroxidase)-labeled secondary antibody (purchased from Sigma, catalog number: A0170) was added, and incubated at 37° C. for 2 hours, and the plate was washed 5 times with PBS. TMB substrate was added at 50 μl/well, and incubated at room temperature for 30 minutes, then a stop solution (1.0 N HCl) was added at 50 μl/well.
In order to detect the species cross-binding activity of the chimeric antibodies, an ELISA plate was coated with commercial murine CD22 protein (ACROBiosystems, catalog number: SI2-M52Ha) and monkey CD22 protein (ACROBiosystems, catalog number: SI2-R52Ha), respectively, and the ELISA detection was performed according to the method in Example 5.1.

| Binder | EC50 (read off the curve) [pM] | binding result |
| --- | --- | --- |
| B1 | ~40 | – |
| B3 | – | no binding (tested: 100 nM) |
| B4 | ~50 | – |
| B6 | ~100 | – |

Target: T3, human CD22 domain1-4-His
Assay: ELISA, human CD22 domain1-4-His coated

| Binder | EC50 (read off the curve) [pM] | binding result |
| --- | --- | --- |
| B1 | ~30 | – |
| B2 | ~50 | – |
| B3 | – | no binding (tested: 100 nM) |
| B4 | ~60 | – |
| B5 | ~300 | – |
| B6 | – | no binding (tested: 100 nM) |

From patent publication US20240084003A1 (SIMCERE ZAIMING PHARMACEUTICAL, published 2024)
